# Assay results: the nanobody polyreactivity screen of Harvey et al. (2022)
# Assay: yeast display, Sf9 membrane polyspecificity reagent, FACS + sequencing; frameworks hold sequencing errors
# Method in brief: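 Galactose-induced (36–48 hours) yeast carrying a synthetic nanobody display library were exposed to 10% biotinylated, detergent-solubilized Sf9 membrane reagent at 4 °C for 1 hour. FACS followed streptavidin microbead enrichment, using low and high (top ~1%) gates for expression (anti-HA) and reagent binding (streptavidin). Colony PCR, MiSeq 2 × 250 sequencing and CDR-length filtering followed. Labels for polyreactivity reflect the gate of origin.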
row,Sequence,polyreactivity (PSR sort gate)
1,QVQLVESGGGLVQAGGSLRLSCAASGRTFLYYAMGWYRQAPGKERELVAVISRDGGSTYYADSVKGRFTISRDNAKNTVYLQMNSLKPEDTAVYYCAKRYGWASGYWNSNYGYLYDYWGQGTQVTVSS,high polyreactivity
2,QVQLVESGGGLVQAGGSLRLSCAASGRIFSRNAMGWYRPAPGKERELVAAISWRGGRTYYADSVKGRFTISRDNAKNTVYLQMNSLKPEDTAVYYCNAVYRLSHYDLDYWGQGTQVTVSS,high polyreactivity
3,QVQLVESGVGLVQAGGILRLSCAASGSSFRGYAMGWYRQAPGKERELVAAISSRGARTHYADSVKGRFTISRDNAKNTVYLQMNRLKPEDTAVYYCNKRQVFVSTGEYEFDYWGQGTQVTVSS,low polyreactivity
4,QVQLVESGGGLVQAGGSHRLSCAASGFIFSYYAMGWYRQAPGKERELVAAITDSGGSTYYADSVKGRFTISRDNAKNTVYLQMNSLKPEDTAVYYCAATYWWAYVWAYSHVKSTNDYWGQGTQVTVSS,low polyreactivity
5,QVQLVESGGGLVQAGGSLRLSCAASGSIFYGYAMGWYSQAPGKERELVAAISSSGGSTYYADSVKGRFTISRDNAKNTVYLQMNSLKTEDTAVDYCAADWDFVNGWFNYWGKGTQVTVSS,high polyreactivity
6,QVQLVESGGGLVQAGGSLRLSCAASGRIFDTNAMGWYRQAPGKERELVAAITYSGGSTYYADSVKGRFTISRDNAKNTVYLQMNSLKPEDTAVYYCAAGPYDPRYDYWGQGTQVTVSS,high polyreactivity
7,QVQLVESGGGLVQAGGSLRLSCAASGSTFADYTMGWYRQAPGKERELSTSYADSVKGRFTISRDNAKNTVYLQMNSLKPEDTAVYYCAAETFYDYGGYDYWGQGTQVTVSS,low polyreactivity
8,QVQLVESGGGLDQAGGSLRLSCAASGIIFSQYAMGWYRQAPGKERELVAGITRSGGSTYYADSVKGRFTISRDNAKNTVYLQMNSLKPEDTAVYYCAAVQRYEYGYWGQGTQVTVSS,high polyreactivity
9,QVQLVESGGGLVQAGGSLRLSCAASGSTLTYYVMGWSRQAPGKERELVAAITDSGGGTYYADSVKGRFTISRDNAKNTVYLQMNSLKPEDTAVYYCNAYYPYGLASFYYWGQGTQVTVSS,low polyreactivity
10,QDQLVESGGGLDQAGGSLRLSCAASGSTLGNNAMGWYRQAPGKERELVAAISTRGGSTYYADSVKGRFTISRDNAKNTVYLQMNSLKPEDTAVYYCAADFGQYHGDVRKMDYWGQGTQVTVSS,low polyreactivity
11,QVQLVESGGGLVQAGGSLRLSCAASGRIFSYYAMGWYRQAPGKERELVASITSGGSTYADSVKGRCTISRDSAKNTVYLQMNSLKREDTAVYYCAAGGKRRWPRKHYGYWGQGSQVTVSS,high polyreactivity
12,QDQLVESGVGLVQAGGSLRLSCAASGIIIYRNTLGWYRQAPGKERELVAAIRRGGNTYYADSVKGRFTISRDNAKNTVYLQMNSLKPEDSAVYYCAASAGPRASYYYWGQGTQVTVSS,high polyreactivity
13,QVLLQESGGGLVQAGGSLRLSCAAIGTISTDIRMGWYRLAPGKEREFVASIDGCSTTYYADSVTGRFTISRDNAKNTVYLQMNSLKPEDTAMFYCAAREATEFYLYYWGQGTQVTVSS,low polyreactivity
14,QVQLVESGGGLVQAGGSLRLSCAASGGIIGAYVMGWYIQAAGKERELVAAISSGGDTNYADTVKGRFTISRDNAKNTVYIQMNSQKPEDTAVSYCAKDPYWTELYPSGDYWGQGTQVTVSS,low polyreactivity
15,QVQLVESGGGLVQAGGSLRLSCAASGSTFARNAMGWYRQAPGKEREFVATISSSGGRTYYADSVKGRFTISRDIAKNTVYLQMNSLNPEDTAVYYCNKALRTYPLFYYWGQGTQVTVSS,high polyreactivity
16,QVQLEESGGGLVQAGGSLRLSCAASGRIFGRNARGWYRQAPVKERELVAAISWRGGNTYYADSVKGRFTISRDNAKNTVYLQMKSLKAEDTAFYYCNTVQSRNEMGYWGQGTQVTVSS,high polyreactivity
17,QVQLVESGGGLVQAGGSLRLSCAASGFTFTLNAMGWYRQAPGKASEFVAAISTGGSTYYADSVKGRFTISRHNAKNTVYLQMNSRKPEDTAVYYCAAYRYSYHGSYQETYYYWGQGTQVTVSS,high polyreactivity
18,QVQLVESGGGLVQAGGSLRLSCAASGSIFFYYAMGWYRQAPGKERELVAAINSDGSTNYADSVKGRFTISRDNAKNTVFLQMNSLKPEDTAVYYCAAEWFPYRWGYGYWGQGTEVTVSS,low polyreactivity
19,QVQLVESGGGLVQAGGSLRLSCAASGSTIVYYAMGWYIQAPGKERELVAAITSGGSTYDADSVKGRCTISRDNAKNTVYLQMNSQKPEDTAVYYCHADWWRGDEAYRMYYWGQGTQVTVSS,low polyreactivity
20,QVQLVESGGGLVQAGGSLRLSCAASGGTFNHYAMGWYRQAPGKERELVSSITNGASTYYADSVKGRFTISRDNAKNTVYLQMNSLKPEDTAVYYCAARTAVGPIRSYWYDYWGQGTQVTVSS,low polyreactivity
21,QVQLVESGGGLVQAGGSLRLSCAASGSTFVNYVMGWYRPAPGKERELVAAISRRGTSTRYADSVKGRFTISRDNAKNTVYLQMNSLKPEDTAVYYCAATRYVGVTGYGYWGQGTQVTVSS,high polyreactivity
22,QVQLVESGGGLVQAGGSLSLSCAASGSTFVGYAMGWYRQAPGKEREFVAAITRGGSTNYADSVKGRFTISRDNAKNTVYLQMNSLNPEDTAVYYCAARDRREGFNFDYWGQGTQVTVSS,low polyreactivity

row,Sequence,polyreactivity (PSR sort gate)
1,QVQLEESGGGLVQAGGSLRLSCAASGSTLEYNVMGWYRQAPGKERELVAAFSRSGGITYYADSVKGRFTISRDNAKNTVYLQMNRLKPEDTAVYYCNRLYTRVREYESWGQGTQVTVSS,high polyreactivity
2,QVQLVESGGGLVQAGGSLSLSCAASGIIIYEYAMGWYRQAPGKEMELVAAISNGGSTYYADSVKGRFTISRDNAKNTVYLQMNSLKPEDTAVYYCAARGYFDALFDYWGQGTQVTVSS,low polyreactivity
3,QVQLVESGGGLVKAGGSLRLSFAASGRNFRRNAMGWYRQAPGRERELVAAISSSGGSTYYADSVKGRFTISRDNAKNTVYLQMNSLKPEDTAVYYCAVRSRFGYYWGQGTQVTVSS,high polyreactivity
4,QVQLVESGGGLVQAGGSLRLSCSASGIIFKYYAMGWYRQAPVKERELVAAISRSSGSTYYADSVKGRFTISRDNAKNTVYLQMNSLKPEDTAVYYCAASGWQQKLDYWVQGTQVTVSS,high polyreactivity
5,QVQLVESGGGLVQAGGSLRLSCAASGSIFAWYAMGRYRQAPGKEMELVAAIRYRGDGTYYADSVKGRFTISRDNAKNTVYLQMNSLKPEDTAVYYCAADSRVYRGGYIYRYGYWGQGTQVTVSS,low polyreactivity
6,QVQLVESWGGLVQAGGSLRLSCAASGRIFDPYAMGWYRQAPGKERELVATITLRGGITYYADSVKGRFTISRDNAKNTVYLEMNSLKPEDTAVYYCAKKVRYYVRWEYDYWGQGTQVTVSS,low polyreactivity
7,QVQLVESGGGLVQAGGSLRLSCAASGRNFYYAMGWYRQEPGKERELVASITWSGGSTYYADSVKGRFTISRDNAKNTVYLQMNSLKPEDTAVYYCNADDLYTWYVEYNYWGQGTQVTVSS,low polyreactivity
8,QVQLVESGGGLVQAGGSLRLSCAASGLTITYNAMGWYRQAPGKERELVAAISWSGDSTYADSVKGRFTISRDNAKNTVYLQKNSLKPEDTAVYYCAVPKYYYYVSRFNYWGQGTQVTVSS,high polyreactivity
9,QVQLLESGGGLVQAGGSLRLSSAASGSILDHYAMGWYRQAPGNEREFVAAISIRGGSTYYADSVKGRFTISRDNAKNTVFLQMNSLKPEDNAVYYCAATAQYGRDSWSSYRMFPPYDYWGQGTEVTVSS,low polyreactivity
10,QVQLVESGGGLVQAGGSLRLSCAASGRTFWLNAMGWYRQAPGKERELVATISRGGSTNYADSVKGRFTISRDNANNTVYLQMNSLKPEDTAVYYCAARRYYWLRGYNYWGQGTQVTVSS,high polyreactivity
11,QVQLEESGGGLVQAGGSLRLSCAAAGLTFDVYAMGWYRPAPGNEMELVAAISSIGGSTYYADSVKGRFTISRDNAKNNVYLQMYSLKPEDTAVYYCSAAISLYSYDYWGQGTQVTVSS,low polyreactivity
12,QVQLVESGGGLVQAGGSLRLSCAASGRTFKYNAMGWYRQAPGKERELVAAITRSGSTYYADSVKGRFTISRDNAKNTVYLQMNSLKPEDTAVYYCNARIVNYGSYYYWGQGTQVTVSS,high polyreactivity
13,QVQLVESGGGLVQAGGRLRLSCAASGFIFDSNTMGWYRQAPGKERELVAGITRRGGSTYYADSVKGRFTISRDNAKNSVYLQMNSLNPEDTAVYYCATAGTYTGGEGYWGQGTQVTVSS,high polyreactivity
14,QVQLVESGGGLVQAGGSLRLSCAASGRTFVYNAMGWYRQAPGKERELVAAISSSGGSTRYADSVKGRFTISRDNAKNTVYLQMNSLKPEDTAVYYCNRLRYSNRYDSWGQGTQVTVSS,high polyreactivity
15,QVQLVESGGGLVQAGGSLRLSCAASGRTFRYNGMGWYRQAPGKERELVAAITLRDGRTYYADSVKGRITISRDNPKNTVNIQMNSLIPEHTAVYYCALEYWVVNAQGNDYWGQGTQVSVSS,high polyreactivity
16,QVQLVESGGGLVQAGGSLRLSCAASGNIFYTYAMGWYRQAPGKERELVAAITWSGGSTYYADSVKGRFTISRDNAKNTVYLQMNSLKPEDTAVYYCAAESLGYYYSGGYYSIYDHWGQGTQVTVSS,high polyreactivity
17,QVQLVESGGGLVQAGGSLRLSCAASGFTFRNYAMGWYRQAPGKEREFVAAISFSGGRTYYADSVKGRFTISRDNAKNTVYLQMNSLKPEDTAVYYCAKKSYSKYDYWGQGTQVTVSS,low polyreactivity
18,QVQLVESGGGLDHAGGSLRLSCADSGRIFNYNAMGWYIQAPGKESELVAAISWDGGSTYYADSVKGRFTISRDNAKNTVYLQINSLKPEDSAVYYCAAQYIWSSYRYYYWGQGTQVTVSS,high polyreactivity
19,QVQHVESGGGLVQAGGSLRLSCAASGFTFNYYAMGWYRQAPGKERELVAAITSSGGSTYYADSVKGRFTISRDNAKNTVYLQMNSLKPEDTAVYYCNAAVYAHRYIDGFDYWGQGTQVTVSS,high polyreactivity
20,QVQLVESGGGLVQAGGSLRLSCAASGITFYRYAMGWYRQAPGKERELVAAISSRGGRTYYADSVKGRFTISRDNAKNTVYLQMNSLKPEDTAVYYCAKGGKVGSTLEYDYWGQGTQVTVSS,high polyreactivity
21,QVQLVESGGGLVQAGGSLRLSCAASGFTFWYYAMGWYRQAPGKERELVATISRGGGSTYYADSVKGRFTISRDNAKNTVYLQMNSLKPEDTAVYYCAAETVRWWWLYDYWGQGTQVTVSS,high polyreactivity
